Laboratory results published in US20230235004A1 (published 2023).

T1: human MAdCAM protein (human, UniProt Q13477 19-317, limits assumed)
T1 construct: also called soluble monomeric human MAdCAM; recombinant human MAdCAM
T1 sequence (looked up): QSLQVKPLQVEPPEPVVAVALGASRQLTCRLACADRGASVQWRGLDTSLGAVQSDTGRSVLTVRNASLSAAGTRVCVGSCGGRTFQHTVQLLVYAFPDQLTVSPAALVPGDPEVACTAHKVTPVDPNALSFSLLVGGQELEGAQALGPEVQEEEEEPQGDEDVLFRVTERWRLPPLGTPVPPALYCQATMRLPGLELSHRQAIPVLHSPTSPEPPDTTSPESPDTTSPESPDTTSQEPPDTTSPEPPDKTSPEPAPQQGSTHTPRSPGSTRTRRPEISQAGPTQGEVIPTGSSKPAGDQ

T2: recombinant mouse MAdCAM-1 (mouse, UniProt Q61826 22-364, limits assumed)
T2 construct: also called mMAdCAM-1
T2 sequence (looked up): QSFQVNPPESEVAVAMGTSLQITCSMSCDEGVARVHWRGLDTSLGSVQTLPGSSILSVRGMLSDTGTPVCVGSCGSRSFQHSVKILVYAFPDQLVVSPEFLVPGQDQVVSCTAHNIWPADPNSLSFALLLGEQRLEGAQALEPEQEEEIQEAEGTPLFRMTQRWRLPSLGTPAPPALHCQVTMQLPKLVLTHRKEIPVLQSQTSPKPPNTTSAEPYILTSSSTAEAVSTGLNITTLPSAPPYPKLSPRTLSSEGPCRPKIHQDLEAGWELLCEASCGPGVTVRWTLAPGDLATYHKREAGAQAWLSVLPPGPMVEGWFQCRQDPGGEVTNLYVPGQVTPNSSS

T3: human MAdCAM expressed on cells (human, UniProt Q13477 19-382)
T3 construct: whole, on cells
T3 sequence (looked up): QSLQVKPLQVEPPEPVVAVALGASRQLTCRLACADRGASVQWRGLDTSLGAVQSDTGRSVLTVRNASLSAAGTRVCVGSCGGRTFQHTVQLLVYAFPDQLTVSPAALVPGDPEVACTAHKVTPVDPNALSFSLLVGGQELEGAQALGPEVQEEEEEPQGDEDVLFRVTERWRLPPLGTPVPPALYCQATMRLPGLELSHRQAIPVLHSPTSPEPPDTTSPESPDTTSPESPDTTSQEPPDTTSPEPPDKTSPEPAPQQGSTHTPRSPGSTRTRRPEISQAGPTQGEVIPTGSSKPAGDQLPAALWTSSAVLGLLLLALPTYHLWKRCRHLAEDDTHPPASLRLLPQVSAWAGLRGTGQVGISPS

T4: mouse MAdCAM expressed on cells (mouse, UniProt Q61826 22-405)
T4 construct: whole, on cells
T4 sequence (looked up): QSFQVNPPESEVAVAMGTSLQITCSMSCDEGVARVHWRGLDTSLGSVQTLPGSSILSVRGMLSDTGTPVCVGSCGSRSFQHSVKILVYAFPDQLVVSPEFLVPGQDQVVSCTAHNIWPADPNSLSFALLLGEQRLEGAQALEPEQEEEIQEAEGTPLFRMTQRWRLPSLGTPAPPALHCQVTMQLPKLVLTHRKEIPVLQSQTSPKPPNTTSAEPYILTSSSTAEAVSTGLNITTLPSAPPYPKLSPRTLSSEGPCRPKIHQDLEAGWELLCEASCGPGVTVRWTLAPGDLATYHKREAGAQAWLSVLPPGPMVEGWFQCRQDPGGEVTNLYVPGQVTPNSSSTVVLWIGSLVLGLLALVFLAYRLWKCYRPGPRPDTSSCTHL


Legend:
human MAdCAM protein = target: T1, human MAdCAM protein; test: Octet
[1] = target: T2, recombinant mouse MAdCAM-1; test: Octet
[2] = target: T3, human MAdCAM expressed on cells; test: cell binding
[3] = target: T4, mouse MAdCAM expressed on cells; test: cell binding

Binder	binding result (human MAdCAM protein)	binding result [1]	binding result [2]	binding result [3]
MAdCAM Antibody Table 2 clone 20 (antibody, V domains shown, IgG format) VH: EVQLLESGGGLVQPGGSLRLSCAASGFTFSDSAMHWVRQAPGKGLEWVSAISGSGSTIYYADSVKGRFTISRDNSKNTLYLQMNSLRAEDTAVYYCVSDIAVAGHWYFDLWGRGTLVTVSS VL: DIQMTQSPSSLSASVGDRVTITCRASQSISTFLNWYQQKPGKAPKLLIYAASRLEGGVPSRFSGSGSGTDFTLTISSLQPEDFATYYCQQANSFPLTFGPGTKVDIK	binds	no binding	binds	no binding
MAdCAM Antibody Table 2 clone 46 (antibody, V domains shown, IgG format) VH: EVQLLESGGGLVQPGGSLRLSCAASGFSFSSYTMNWVRQAPGKGLEWVSFITSSSRTIYYADSVKGRFTISRDNSKNTLYLQMNSLRAEDTAVYYCARDRRGDYGDSWYFDLWGRGTLVTVSS VL: EIVMTQSPATLSVSPGERATLSCRASQSVRNYLAWYQQKPGQAPRLLIYGASTRATGIPARFSGSGSGTEFTLTISSLQSEDFAVYYCQQYGSSPLTFGGGTKVEIK	binds	no binding	binds	no binding
MAdCAM Antibody Table 2 clone 7 (antibody, V domains shown, IgG format) VH: EVQLLESGGGLVQPGGSLRLSCAASGFTFSDYQMSWVRQAPGKGLEWVAIISHADGGFKDYADSVKGRFTISRDNSKNTLYLQMNSLRAEDTAVYYCAKPYSSGWSAVYYFDYWGQGTLVTVSS VL: DIQMTQSPSSLSASVGDRVTITCRASRGITNDLGWYQQKPGKAPKLLIYAASTLQSGVPSRFSGSGSGTDFTLTISSLQPEDFATYYCQQAYSFPWTFGQGTKVEIK	–	binds	binds	binds
MAdCAM Antibody Table 2 clone 11 (antibody, V domains shown, IgG format) VH: EVQLLESGGGLVQPGGSLRLSCAASGFTFSDYYMNWVRQAPGKGLEWVSVIGESGGSTYYADSVKGRFTISRDNSKNTLYLQMNSLRAEDTAVYYCAADPVSRWPKHGGGDYWGQGTLVTVSS VL: DIQMTQSPSSLSASVGDRVTITCRASQGISSSLAWYQQKPGKAPKLLIYAASTLQSGVPSRFSGSGSGTDFTLTISSLQPEDFATYYCQQSYSTPWTFGQGTKVEIK	binds	binds	binds	binds
MAdCAM Antibody Table 2 clone 65 (antibody, V domains shown, IgG format) VH: QVQLVQSGAEVKKPGASVKVSCKASGYTFTSYDINWVRQAPGQGLEWMGWMNPNSGNTGYAQKFQGRVTMTRDTSTSTVYMELSSLRSEDTAVYYCAKDSDYSNLLWDYWGQGTLVTVSS VL: DIQMTQSPSSLSASVGDRVTITCRASQDITNDLGWYQQKPGKAPKLLIYQASSLESGVPSRFSGSGSGTDFTLTISSLQPEDFATYYCQQSYTIPLTFGQGTKVEIK	binds	no binding	binds	no binding

Results, then the binder that gave them:

binding result (human MAdCAM protein)	binding result [1]	binding result [2]	binding result [3]	Binder
–	no binding	binds	no binding	MAdCAM Antibody Table 2 clone 24 (antibody, V domains shown, IgG format) VH: EVQLVESGGGLVKPGGSLRLSCAASGFTFSSYWMSWVRQAPGKGLEWVSRISSDGRITTYAAPVKGRFTISRDDSKNTLYLQMNSLKTEDTAVYYCARGTSYCTGGVCDIDYWGQGTLVTVSS VL: DIQMTQSPSSLSASVGDRVTITCRASQSIGRNLNWYQQKPGKAPKLLIYSASNLQSGVPSRFSGSGSGTDFTLTISSLQPEDFATYYCQQSYSIPLTFGPGTKVDIK
binds	no binding	binds	no binding	MAdCAM Antibody Table 2 clone 22 (antibody, V domains shown, IgG format) VH: EVQLLESGGGLVQPGGSLRLSCAASGFTFDDYAMHWVRQAPGKGLEWVSGISWNSGSIGYADSVKGRFTISRDNSKNTLYLQMNSLRAEDTAVYYCAKDIVAAGHYYYGMDVWGQGTTVTVSS VL: DIQMTQSPSSLSASVGDRVTITCQASQDISNYLNWYQQKPGKAPKLLIYDASNLETGVPSRFSGSGSGTDFTLTISSLQPEDFATYYCQQSYSTPLTFGGGTKVEIK
binds	no binding	binds	no binding	MAdCAM Antibody Table 2 clone 23 (antibody, V domains shown, IgG format) VH: EVQLLESGGGLVQPGGSLRLSCAASGFTFDDYAMHWVRQAPGKGLEWVSYIDTSSSHLYYADSVKGRFTISRDNSKNTLYLQMNSLRAEDTAVYYCARDEAAAGYYGMDVWGQGTTVTVSS VL: DIQMTQSPSSLSASVGDRVTITCQAGQDISNYLNWYQQKPGKAPKLLIYDASNLETGVPSRFSGSGSGTDFTLTISSLQPEDFATYYCQQTYSTPITFGQGTKLEIK
–	binds	binds	binds	MAdCAM Antibody Table 2 clone 8 (antibody, V domains shown, IgG format) VH: QVQLVQSGAEVKKPGASVKVSCKASGYTFTGYHIHWVRQAPGQGLEWMGIINPSGGSTIYAQKFQGRVTMTRDTSTSTVYMELSSLRSEDTAVYYCAKDWSSWYLGPFDYWGQGTLVTVSS VL: DIQMTQSPSSLSASVGDRVTITCRASQNISSSLNWYQQKPGKAPKLLIYAASSLQSGVPSRFSGSGSGTDFTLTISSLQPEDFATYYCQQSYTTPYTFGQGTKVEIK
binds	binds	binds	binds	MAdCAM Antibody Table 2 clone 75 (antibody, V domains shown, IgG format) VH: EVQLLESGGGLVQPGGSLRLSCAASGFTFSDFWMHWVRQAPGKGLEWISYISGDSGYTNYADSVKGRFTISRDNSKNTLYLQMNSLRAEDTAVYYCARDRPYYYYMDVWGKGTTVTVSS VL: DIQMTQSPSSLSASVGDRVTITCRASQSVSRSLAWYQQKPGKAPKLLIYAASSLQSGVPSRFSGSGSGTDFTLTISSLQPEDFATYYCQQYKSYPVTFGQGTKVEIK
binds	no binding	binds	no binding	MAdCAM Antibody Table 2 clone 74 (antibody, V domains shown, IgG format) VH: QVQLVQSGAEVKKPGASVKVSCKASGYTFTGYYMHWVRQAPGQGLEWMGIINPSGGNTKYAQKFQGRVTMTRDTSTSTVYMELSSLRSEDTAVYYCTTADYYYYMDVWGKGTTVTVSS VL: DIQMTQSPSSLSASVGDRVTITCRASQGISNYLAWYQQKPGKAPKLLIYAASSLQSGVPSRFSGSGSGTDFTLTISSLQPEDFATYYCQQYYSNADFGQGTKVEIK
binds	binds	binds	binds	MAdCAM Antibody Table 2 clone 79 (antibody, V domains shown, IgG format) VH: EVQLLESGGGLVKPGGSLRLSCAASGFTFDDYAMHWVRQAPGKGLEWVASITSSSAFIDYAASVKGRFTISRDDSKNTLYLQMNSLKTEDTAVYYCARERVDWNSYFDLWGRGTLVTVSS VL: EIVMTQSPATLSVSPGERATLSCRASQGISNSYLAWYQQKPGQAPRLLIYGASTRATGIPARFSGSGSGTEFTLTISSLQSEDFAVYYCQQYYTYPPTFGPGTKVDIK
binds	no binding	binds	no binding	MAdCAM Antibody Table 2 clone 17 (antibody, V domains shown, IgG format) VH: QVQLVQSGAEVKKPGSSVKVSCKASGYTFTDYHIHWVRQAPGQGLEWMGGIVPRSGSTTYAQKFQGRVTITADESTSTAYMELSSLRSEDTAVYYCAKDESSGWYYFDYWGQGTLVTVSS VL: DIVMTQSPLSLPVTPGEPASISCRSSQSLLHSNGYNYLDWYLQKPGQSPQLLIYSAYNRASGVPDRFSGSGSGTDFTLKISRVEAEDVGVYYCMQALQTPLTFGQGTKVEIK
